Values of other authors in patent US5916869A, “Method of treating birds in ovo” (North Carolina State University, priority 1997, dated 1999).

Test system: sodium-dependent duodenal active transport
Conditions: sheep, injected

B1: recombinant bovine growth hormone (protein, UniProt P01246 27-217, looked up)
Somatotropin: AFPAMSLSGLFANAVLRAQHLHQLAADTFKEFERTYIPEGQRYSIQNTQVAFCFSETIPAPTGKNEAQQKSDLELLRISLLLIQSWLGPLQFLSRVFTNSLVFGTSDRVYEKLKDLEEGILALMRELEDGTPRAGQILKQTYDKFDTNMRSDDALLKNYGLLSCFRKDLHKTETYLRVMKCRRFGEASCAF
notes: recombinant bovine growth hormone injected into sheep in a cited study
increase of sodium-dependent duodenal active transport of glucose: approximately 60% | increase of transport of proline: approximately 30%
